Source: the RNAGym collection of RNA variant scans (doi:10.1021/acssynbio.7b00057)

B1: Pistol ribozyme (parent)
chain: GGGUCGUUGUUCCAUAAUCGCGUGGAUAUGGCACGCAAGUUUCUACCGGGCACCGUAAAUGUCCGACUGGAGCCGUUCGGGCGGCUAUAAACAGACCUCAGGCCCGAAGCGUGGCGGCACCUGCCGCCGGUGGUAAAAAAGAUCGGAAGAGCACACGUCU

Variants of: B1
Experiment: aptazyme ON/OFF ratio, guanine; higher = stronger switching; co-transcriptional cleavage with and without guanine

Row | Variant | aptazyme ON/OFF ratio
1 | U7A U8G G9U U10G U11A C12G | 1.46
2 | U7A U8G G9U U10G U11A C12A | 1.74
3 | U7A U8G G9U U10G U11A C12U | 1.27
4 | U7A U8G U10C U11C C13U | 1.12
5 | U7A U8G U10C U11C C13G | 1.13
6 | U7A U8G U10C U11C C13A | 1.06
7 | U7A U8G G9U U11G C13G | 1.4
8 | U7A U8G G9U U11G C13U | 1.45
9 | U7A U8G G9U U11G C13A | 1.28
10 | U7A U8G U10A U11G C12U C13U | 1.32
11 | U7A U8G U10A U11G C12U C13G | 1.21
12 | U7A U8G U10A U11G C12U C13A | 1.15
13 | U7A U8G G9U U11C C12G | 1.26
14 | U7A U8G G9U U11C C12A | 1.23
15 | U7A U8G G9U U11C C12U | 1.54
16 | U7A U8G U10A U11C C12U C13U | 1.33
17 | U7A U8G U10A U11C C12U C13A | 1.14
18 | U7A U8G U10A U11C C12U C13G | 1.41
19 | U7A U8G U11C | 1.32
20 | U7A U8G U11A | 1.49
21 | U7A U8G U10C U11G | 1.29

Row | Variant | aptazyme ON/OFF ratio
22 | U7A U8G U10C U11C | 2.69
23 | U7A U8G U10C U11A | 1.95
24 | U7A U8G G9U U10G C12U C13U | 1.21
25 | U7A U8G G9U U10G C12U C13G | 1.24
26 | U7A U8G G9U U10G C12U C13A | 1.49
27 | U7A U8G U10A U11G C12A C13U | 1.08
28 | U7A U8G U10A U11G C12A C13G | 1.21
29 | U7A U8G U10A U11G C12A C13A | 1.28
30 | U7A U8G G9U U10G U11G | 1.38
31 | U7A U8G G9U U10G U11C | 1.03
32 | U7A U8G G9U U10G U11A | 1.16
33 | U7A U8G U10C U11G C12A C13U | 1.19
34 | U7A U8G U10C U11G C12A C13A | 1.42
35 | U7A U8G U10C U11G C12A C13G | 1.61
36 | U7A U8G G9U U10G U11C C12G C13G | 1.13
37 | U7A U8G G9U U10G U11C C12G C13A | 1.11
38 | U7A U8G G9U U10G U11C C12G C13U | 1.22
39 | U7A U8G U10G U11A C12A C13U | 1.34
40 | U7A U8G U10G U11A C12A C13A | 1.55
41 | U7A U8G U10G U11A C12A C13G | 1.27
42 | U7A U8G U10C U11A C12U C13A | 1.35

Row | Variant | aptazyme ON/OFF ratio
43 | U7A U8G U10C U11A C12U C13U | 1.18
44 | U7A U8G U10C U11A C12U C13G | 0.954
45 | U7A U8G U10A U11C C12G C13A | 1.56
46 | U7A U8G U10A U11C C12G C13G | 1.26
47 | U7A U8G U10A U11C C12G C13U | 1.21
48 | U7A U8G G9U U10G C12G | 1.15
49 | U7A U8G G9U U10G C12A | 1.21
50 | U7A U8G G9U U10G C12U | 1.28
51 | U7A U8G G9U U11A C12A | 1.59
52 | U7A U8G G9U U11A C12U | 1.38
53 | U7A U8G G9U U11A C12G | 1.38
54 | U7A U8G G9U U10C U11G C12U | 1.21
55 | U7A U8G U10A U11A C12U C13A | 1.72
56 | U7A U8G U10A U11A C12U C13G | 1.25
57 | U7A U8G U10A U11A C12U C13U | 1.28
58 | U7A U8G U10G U11G C13U | 1.32
59 | U7A U8G U10G U11G C13A | 1.39
60 | U7A U8G U10G U11G C13G | 1.29
61 | U7A U8G U10A U11C C12A C13G | 1.26
62 | U7A U8G U10A U11C C12A C13U | 1.53
63 | U7A U8G U10A U11C C12A C13A | 1.26

Row | Variant | aptazyme ON/OFF ratio
64 | U7A U8G U10A U11A C12G C13U | 1.63
65 | U7A U8G U10A U11A C12G C13G | 1.26
66 | U7A U8G U10A U11A C12G C13A | 1.56
67 | U7A U8G U10A U11A | 2.54
68 | U7A U8G U10A U11G | 1.95
69 | U7A U8G U10A U11C | 1.11
70 | U7A U8G G9U U11A C12A C13U | 1.25
71 | U7A U8G G9U U11A C12A C13G | 1.38
72 | U7A U8G G9U U11A C12A C13A | 1.53
73 | U7A U8G U10A U11A C13A | 1.28
74 | U7A U8G U10A U11A C13G | 1.38
75 | U7A U8G U10A U11A C13U | 1.1
76 | U7A U8G G9U U11C C12U C13U | 1.07
77 | U7A U8G G9U U11C C12U C13A | 1.17
78 | U7A U8G G9U U11C C12U C13G | 1.15
79 | U7A U8G U10C U11C C12U C13A | 1.45
80 | U7A U8G U10C U11C C12U C13G | 1.18
81 | U7A U8G U10C U11C C12U C13U | 1.17
82 | U7A U8G U10G U11C C12G C13G | 1.22
83 | U7A U8G U10G U11C C12G C13A | 1.22
84 | U7A U8G U10G U11C C12G C13U | 1.56
